One series concerns HMGN1. The experiment in a line: two-color EMSA. The settings on record: value stated for HMGNs together, EMSA: 100 nM nucleosomes in 10 µl 2x TBE (45 mM Tris-borate pH 8.3, 1 mM EDTA), 0.15 mg/ml BSA, 5% Ficoll, 10 min at 4 °C, native 5% PAGE in 2x TBE …. For orientation: Mobility shift assays separate free from complexed probe on a gel.
A further series relates to HMGN2. The experiment in a line: two-color EMSA. The settings on record: value stated for HMGNs together, EMSA: 100 nM nucleosomes in 10 µl 2x TBE (45 mM Tris-borate pH 8.3, 1 mM EDTA), 0.15 mg/ml BSA, 5% Ficoll, 10 min at 4 °C, native 5% PAGE in 2x TBE ….
The mark [1] stands for this setting: low HMGN:nucleosome ratio, histone H3K27ac, scale: ratio of shifted rMNH3K27ac to rMN fluorescence.
Where [2] appears, read: no preference over rMN, histone H3K27me3, scale: ratio of shifted rMNH3K27me3 to rMN fluorescence.

For the substance rMNH3K27ac, the binding signal with HMGN1 (setting [1]) and in the series on HMGN2 (setting [1]) was 1.7 throughout.
As for rMNH3K27me3, the binding signal in the series on HMGN1 (setting [2]) and in the series on HMGN2 (setting [2]) was 1 each time.

The values above are taken from article PMC8866397.
